The source of these data is article PMC7564285.

Assay [1] deals with γHV68 M11 M119A (murine γ-herpesvirus 68) (UniProt P89884). Description: ITC; Beclin 1 BH3D peptide titrated into M11 protein, 25 injections of 2 μL, 14 °C; 50 mM HEPES pH 7.5, 150 mM NaCl, 2 mM βME; independent model.
For assay [2], the target named is γHV68 M11 F79A (murine γ-herpesvirus 68) (UniProt P89884). Described as above.
Assay [3] has as its target γHV68 M11 Y97A (murine γ-herpesvirus 68) (UniProt P89884). The assay is described as above.
Assay [4] has as its target γHV68 M11 L128A (murine γ-herpesvirus 68) (UniProt P89884). The assay is described as above.
For assay [5], the target named is γHV68 M11 L103A (murine γ-herpesvirus 68) (UniProt P89884). The description is as above.
Assay [6] addresses M11 Y56A (murine γ-herpesvirus 68) (UniProt P89884). Description: ITC; BH3D peptide titrated into M11 protein (25 injections of 2 μL); 14 °C; 50 mM HEPES pH 7.5, 150 mM NaCl, 2 mM βME; co-dialyzed overnight; independent model. (In general: In ITC the heat of successive injections is recorded.)
Assay [7] addresses M11 A63K (murine γ-herpesvirus 68) (UniProt P89884). The description is as above.
Assay [8] has as its target M11 F48A (murine γ-herpesvirus 68) (UniProt P89884). The assay is described as above.
Assay [9] concerns the target murine γ-herpesvirus 68 vBCL2 M11, wild type (murine γ-herpesvirus 68) (UniProt P89884). Described as above.

pKd: −log10 of the molar value.

By pKd is commonly meant the Kd on a negative log10 scale, so that one unit is a factor of ten. A higher pKd goes with a small Kd.

Beclin 1 BH3D peptide: the Ka stood at 527000 M⁻¹ in assay [1]; 4.6e+06 M⁻¹ in assay [2]; 920000 M⁻¹ in assay [3]; 1.12e+06 M⁻¹ in assay [4]; 417000 M⁻¹ in assay [5]; 300000 M⁻¹ in [6]. For the same substance, the results for the Ka in [7], in [8] and in assay [9] were 160000 M⁻¹, 158000 M⁻¹ and 1.2e+06 M⁻¹, respectively. The pKd was 5.72 in [1]; 5.66 in [2]; 5.95 in assay [3]; 6.05 in assay [4]; 5.62 in [5]; 5.47 in [6]. Besides, the figures for the pKd in assay [7], in assay [8] and in assay [9] were 5.19, 4.20 and 6.08, respectively. Besides, the dH in [6] was -9.03 kcal/mol; in assay [7], -9.49 kcal/mol; in [8] it was -8.63 kcal/mol; in assay [9], -12.8 kcal/mol.
